Measurements from patent US6896884B2, “Human chitinase, its recombinant production, its use for decomposing chitin, its use in therapy or prophylaxis against infection diseases” (Universiteit va Amsterdam, priority 1995, dated 2005).

What was measured:
[1] = hydrolysis of 4-methylumbelliferyl-chitobioside versus 4-methylumbelliferyl-chitotrioside; type: biochemical; details: 4-methylumbelliferyl substrates
Source text: Purified 50 kDa and 39 kDa tissue chitotriosidases, and 50 kDa and 39 kDa chitozymes produced by recombinant DNA technology, are able to hydrolyse 4-methylumbelliferyl-chitotrioside and 4-methylumbelliferyl-chitobioside, the ratio of chitobioside activity to chitotrioside activity being about 0.7. Furthermore, p-nitrophenyl-chitotrioside and p-nitrophenyl-chitobioside are also efficiently hydrolyzed.

[2] = type: in vitro ADME
Experimental: Production of the chitozymes via conventional technology in insect cells, plant cells, or vertebrate cells should be possible. Finally, transgenic animals could be envisioned as producers of large quantities of chitozymes in their milk for the applications described above. […] Successful proteolytic cleavage is only accomplished after denaturation of the enzyme, e.g. after heating in the presence of sodium dodecylsulphate. […] In analogy, chitotriosidase is stable at 37° C. in macrophage-conditioned medium that contains large quantities of various other secreted lytic enzymes.

[3] = type: physicochemical
[4] = chitin azure degradation (release of soluble azure at 550 nm); type: biochemical; details: chitin azure 10 mg/ml, citrate/phosphate buffer pH 5.2; control chitinase from Serratia marcescens
Experimental: Chitin azure (Sigma) suspended in citrate/phosphate buffer (pH 5.2) at a final concentration of 10 mg/ml was used to monitor chitinase activity. Chitin degradation was detected spectrophotometrically at 550 nm by determination of release of soluble azure (18). Chitinase from Serratia marcescens (Sigma) was used as control. […] See for example ref.18.

[5] = test system: cell wall suspension of Micrococcus lysodeikticus; assay: lysozyme activity towards bacterial cell wall suspension; type: biochemical
[6] = test system: Mucor mucedo; assay: fungicidal effect on hyphal growth; type: cell-based; details: for effect on hyphal growth, microscopical analysis: enzyme solution in 0.15 M NaCl pipetted on hyphal tips
Experimental: To test whether human chitotriosidase can exert an antifungal action, a chitinous fungus (Mucor mucedo) was grown on plates (containing malt extract, peptone, glucose and agar) under a Cellophane membrane in order to keep the hyphae flat against the agar surface (see ref.16). Individual sectors were cut out and mounted on microscope slides. Purified chitozyme 50 and chitozyme 39 were dialysed against 0.15 M sodium chloride. Samples of enzyme-containing solutions, and 0.15 M NaCl were pipetted on the hyphal tips. […] Application of saline had no effect. Negative effects on hyphal growth were detectable using chitozyme solutions with a concentration of enzyme as little as 0.005 mg/ml.

[7] = test system: a variety of proteases; type: in vitro ADME
Experimental: Successful proteolytic cleavage is only accomplished after denaturation of the enzyme, e.g. after heating in the presence of sodium dodecylsulphate. […] In analogy, chitotriosidase is stable at 37° C. in macrophage-conditioned medium that contains large quantities of various other secreted lytic enzymes.

[8] = rat, in vivo
Source text: A prerequisite for the intravenous application of the chitinase is insight in its clearance. In the blood stream the most predominant isozyme is the 50 kDa protein. In tissue predominantly a 39 kDa isozyme is encountered. This appears to be formed by uptake of 50 kDa protein followed by proteolytic cleavage to a 39 kDa form that is remarkably stable in the lysosomal environment. […] Clearance is not a very rapid process as monitored by the disappearance of activity of human chitotriosidase in the blood stream of intravenously injected rats, the half life being about one hour. Only minor amounts of chitotriosidase are daily excreted into the urine. It is conceivable that some enzyme is efficiently recaptured by proximal tube epithelial cells since kidney is found to be extremely rich in ‘lysosomally processed’ 39 kDa enzyme.

## 50 kDa tissue chitotriosidase: 50 kDa chitotriosidase purified from Gaucher disease spleen
[1]
  ratio of chitobioside activity to chitotrioside activity: about 0.7

## chitotriosidase: human chitinase produced by macrophages, named chitotriosidase; isoform not specified at the place
[2]
  loss of enzyme activity on prolonged incubation: does not result in detectable loss of enzyme activity
  stability in macrophage-conditioned medium: stable
[3]; storage for several days at room temperature
  enzyme activity after spotting on filter paper: enzyme activity is still recovered
[3]; −20 or −70° C., repeated cycles of freezing and thawing
  loss of enzyme activity upon storage and freeze-thaw: No loss of enzyme activity
[4]
  chitinase activity, related to hydrolysis of 4-methyl-umbelliferyl-chitotrioside: comparable to that of the bacterial chitinase
[5]
  activity towards Micrococcus lysodeikticus cell wall suspension (lysozyme activity): No significant activity
[6]; Mucor species
  effect on fungal growth: inhibited growth

## chitozyme 39: recombinant human chitotriosidase isozyme of 39 kDa, encoded by chi.39 cDNA (SEQ ID NO:6), produced by transfected COS cells
[7]
  stability against a variety of proteases: extremely stable
[8]
  clearance from the circulation: not immediately cleared
[1]
  ratio of chitobioside activity to chitotrioside activity: about 0.7
[6]
  effect on hyphal growth, microscopical analysis: immediate cessation of hyphal growth

## chitozyme 50: recombinant human chitotriosidase isozyme of 50 kDa, encoded by chi.50 cDNA (SEQ ID NO:4), produced by transfected COS cells
[7]
  stability against a variety of proteases: extremely stable
[8]
  clearance from the circulation: not immediately cleared
  half life in the circulation, compared between isozymes: somewhat longer than that of the 39 kDa enzyme
[1]
  ratio of chitobioside activity to chitotrioside activity: about 0.7
[6]
  effect on hyphal growth, microscopical analysis: immediate cessation of hyphal growth

## chitozyme: recombinant chitotriosidase, isozyme not specified at the place
[2]
  stability when added to cow milk: completely stable

## tissue chitotriosidase: chitotriosidase purified from Gaucher disease spleen, isoform not specified
[8]
  clearance from the circulation: not immediately cleared
